One block for each molecule: values may come before it.
Experiments:
[1] = test system: MDA-MB-231/HER2 (HER2 knock in) cells; assay: In vitro association study (flow cytometry), MDA-MB-231/HER2; type: cell-based, human; conditions: MDA-MB-231/HER2, 3.33 nM, over 24 h, mean±SD
[2] = test system: HER2-positive MDA-MB-453 cells; assay: Binding of 2D3-dendrimer conjugates to MDA-MB-453 cells (Cy5 MFI); type: cell-based, human; conditions: for MFI (mean fluorescence intensity, Cy5): MDA-MB-453 cells incubated with dendrimers, triplicate wells, mean with standard deviation; for binding to MDA-MB-453 cells: flow cytometry, result in words
ErbB2-ECD = ErbB2-ECD (Homo sapiens, UniProt P04626); assay: SPR, ErbB2-ECD amine-coupled on chip, analyte injected, 25 °C, 1:1 Langmuir fit
[3] = molecular target: T1, HER2 (human epidermal growth factor receptor 2) on cells (human, UniProt P04626 23-1255); assay: flow cytometry (Cy5), BT-474 cells, 1 h, conjugate at 12 mM (so in the source)
T1 construct: whole, on cells; also called ERBB2; HER2 receptor

[4] = molecular target: T1, HER2 (human epidermal growth factor …); assay: flow cytometry (Cy5), BT-474 cells, 1 h, conjugate at 25 mM (so in the source)
[5] = molecular target: T1, HER2 (human epidermal growth factor …); assay: flow cytometry (Cy5), BT-474 cells, 1 h, conjugate at 3 mM (so in the source)
[6] = molecular target: T1, HER2 (human epidermal growth factor …); assay: flow cytometry (Cy5), BT-474 cells, 1 h, conjugate at 6 mM (so in the source)
[7] = molecular target: T1, HER2 (human epidermal growth factor …); assay: flow cytometry (Cy5), MDA-MB-231 parental cells (HER2 lo, control), 0.5 h
[8] = molecular target: T1, HER2 (human epidermal growth factor …); assay: flow cytometry (Cy5), MDA-MB-231/HER2 cells, 0.5 h

Molecule: (MeTzPh)PEG4CO-NHPEG24CO—[N(PN)2][Lys]2[Lys]4[Lys]8[((α-NHCy5)1(α-NHAc)7)(ε-NH-COPEG1100)8], G3 [Compound 52]
percent of cellular association [1]: significantly lower association | MFI (mean fluorescence intensity, Cy5) [2]: 3.097 ± 0.01 | binding to MDA-MB-453 cells [2]: did not bind

Molecule: (MeTzPh)PEG4CO-NHPEG24CO—[N(PN)2][Lys]2[Lys]4[Lys]8[Lys]16[((α-NHCy5)1(α-NHAc)15)(ε-NH-COPEG1100)16], G4 [Compound 53]
percent of cellular association [1]: significantly lower association | MFI (mean fluorescence intensity, Cy5) [2]: 6.827 ± 0.07 | binding to MDA-MB-453 cells [2]: did not bind

Molecule: (MeTzPh)PEG4CO-NHPEG24CO—[N(PN)2][Lys]2[Lys]4[Lys]8[Lys]16[Lys]32[((α-NHCy5)1(α-NHAc)31)(ε-NH-COPEG1100)32], G5 [Compound 54]
percent of cellular association [1]: significantly lower association | MFI (mean fluorescence intensity, Cy5) [2]: 4.349 ± 0.08 | binding to MDA-MB-453 cells [2]: did not bind

B2: BHALys[Lys]2[Lys]4[Lys]8[((α-NH-COPEG24NH-COPEG4(PhMeTz)/TCO-PEG3NH-COPEG24NH-Glu-DBCO/N3-Nanobody)1(α-Lys(α-NHCy5)(ε-NHDFO))1(α-NH2)6)(ε-NH-COPEG1000)8], G3, … (VHH)
VHH: EVQLVESGGSLVQPGGSLRLSCAASGFTFDDYAMSWVRQVPGKGLEWVSSINWSGTHTDYADSVKGRFTISRNNANNTLYLQMNSLKSEDTAVYYCAKNWRDAGTTWFEKSGSAGQGTQVTVSS
modifications: # (unnatural amino acid, p-azido-phenylalanine, after ...QVTVSS) clicked to the DBCO of linker Compound 51, whose TCO is joined to the tetrazine on the surface of the G3 lysine dendrimer Compound 27 (Cy5, DFO, 8 PEG1000)
notes: also called BHA-G3-PEG1000 + NB
percent of cellular association [7]: 25.1% | percent of cellular association [8]: 218%

B3: [(ε-NHCO-PEG1100)16(α-DOTA)7(α-NHCy5)1(α-NH2)8][Lys]16[Lys]8[Lys]4[Lys]2[Lys]-(PN)NCO-PEG24-CONH-PEG4-(PhTzMe)/TCO-PEG3-NHCO-PEG24-Glu-DBCO/N3-Nanobody SRS-22 (VHH)
VHH: B2 VHH
modifications: # (unnatural amino acid, p-azido-phenylalanine, after ...QVTVSS) clicked to the DBCO of SRS-22a (linker Compound 51 on dendrimer HH-2: 1 Cy5, 7 DOTA, 16 PEG1100)
MFI [3]: 6550 | MFI [4]: 6490 | MFI [5]: 2640 | MFI [6]: 4910

B4: BHALys[Lys]2[Lys]4[((α-NH-COPEG24NH-COPEG4(PhMeTz)/TCO-PEG3NH-COPEG24NH-Glu-DBCO/N3-Nanobody)1(α-Lys(α-NHCy5)(ε-NHDFO))1(α-NH2)2)(ε-NH-COPEG1000)4], G2, … (VHH)
VHH: B2 VHH
modifications: # (unnatural amino acid, p-azido-phenylalanine, after ...QVTVSS) clicked to the DBCO of linker Compound 51, whose TCO is joined to the tetrazine on the surface of the G2 lysine dendrimer Compound 25 (Cy5, DFO, 4 PEG1000)
notes: also called BHA-G2-PEG1000 + NB
percent of cellular association [7]: 30.8% | percent of cellular association [8]: 190%

B6: [(ε-NHCO-PEG1100)16(α-DOTA)7(α-NHCy5)1(α-NH2)8][Lys]16[Lys]8[Lys]4[Lys]2[Lys]-(PN)NCO-PEG24-CONH-PEG4-(PhTzMe)/TCO-NHCO-PEG24-(MAL)Me/Cys-Nanobody SRS-17 (VHH)
VHH: B2 VHH
modifications: the additional cysteine (in …) coupled to the methylmaleimide of linker SRS-12 (intermediate SRS-14), whose TCO is joined to the tetrazine of dendrimer HH-2 (1 Cy5, 7 DOTA, 16 PEG1100)
MFI [3]: 2270 | MFI [4]: 2550 | MFI [5]: 1020 | MFI [6]: 1530

B9: [(ε-NHCO-PEG1100)16(α-NHCy5)1(α-NHDOTA)8(α-NH2)7][Lys]16[Lys]8[Lys]4[Lys]2[Lys]-CONH-CH2-CH2-S-(Me)MAL-PEG24-CONH-Bn-Tz(Me)/TCO-NHCO-PEG24-(MAL)Me/Cys-Nanobody … (VHH)
VHH: B2 VHH
modifications: the additional cysteine (in …) coupled to the methylmaleimide of linker SRS-12 (intermediate SRS-14), whose TCO is joined to the tetrazine of dendron RP-5 (1 Cy5, 8 DOTA, 16 PEG1100)
MFI [3]: 1370 | MFI [4]: 1450 | MFI [5]: 716 | MFI [6]: 732

Next, values leading:

Kd (ErbB2-ECD): 50 nM | koff (ErbB2-ECD): 0.0013 s⁻¹ | kon (ErbB2-ECD): 25000 M⁻¹ s⁻¹
Molecule: Affibody-BCN/N3-PEG24CO-[N(PN)2][Lys]2[Lys]4[Lys]8[(α-NHGlu-vc-PAB-MMAE)8(ε-NH-COPEG1100)8], G3, Compound 77 (designed binder)

Kd (ErbB2-ECD): 36 nM | koff (ErbB2-ECD): 0.00114 s⁻¹ | kon (ErbB2-ECD): 32000 M⁻¹ s⁻¹
Molecule: Affibody-BCN/N3-PEG24CO-[N(PN)2][Lys]2[Lys]4[Lys]8[(α-NHGlu-vc-PAB-MMAE)8(ε-NH-COPEG2000)8], G3, Compound 78 (designed binder)

MFI [3]: 2270 | MFI [4]: 2150 | MFI [5]: 915 | MFI [6]: 1460
B1: [[(ε-NHCO-PEG1100)8(α-NHDOTA)4.75(α-NHCy5)0.5(α-NH2)2.75][Lys]8[Lys]4[Lys]2[Lys]-CONH-CH2-CH2-S-]2MAL-PEG3-NHCO-PEG24-CONH-PEG4-(PhTzMe)/TCO-NHCO-PEG24-(MAL)Me/ … (VHH)
VHH: B2 VHH
modifications: the additional cysteine (in …) coupled to the methylmaleimide of linker SRS-12 (intermediate SRS-14), whose TCO is joined to the tetrazine of dendrimer SRS-4-Mal (maleimide core, Cy5, DOTA, PEG1100)

MFI [3]: 3140 | MFI [4]: 3400 | MFI [5]: 1500 | MFI [6]: 2170
B5: [[(ε-NHCO-PEG1100)8(α-NHDOTA)4.75(α-NHCy5)0.5(α-NH2)2.75][Lys]8[Lys]4[Lys]2[Lys]-CONH-CH2-CH2-S-]2MAL-PEG3-NHCO-PEG24-CONH-PEG4-(PhTzMe)/TCO-PEG3-NHCO-PEG24-Glu … (VHH)
VHH: B2 VHH
modifications: # (unnatural amino acid, p-azido-phenylalanine, after ...QVTVSS) clicked to the DBCO of SRS-20a (linker Compound 51 on dendrimer SRS-4-Mal: maleimide core, Cy5, DOTA, PEG1100)

MFI [3]: 5260 | MFI [4]: 4760 | MFI [5]: 3100 | MFI [6]: 4640
B7: BHALys[Lys]2[Lys]4[Lys]8[Lys]16[((α-NH-COPEG24NH-COPEG4(PhTzMe)/TCO-PEG3-NHCO-PEG24-(MAL)Me/Cys-Nanobody)1(α-NHCy5)1(α-NHDOTA))10(α-NH2)4)(ε-NH-COPEG1000)16] … (VHH)
VHH: B2 VHH
modifications: the additional cysteine (in …) coupled to the methylmaleimide of SRS-21a (linker SRS-12 on G4 dendrimer SRS-1: 1 Cy5, 10 DOTA, 16 PEG1000)

percent of cellular association [7]: 17.5% | percent of cellular association [8]: 165%
B8: BHA[Lys]2[Lys]4[Lys]8[Lys]16[Lys]32[((α-NH-COPEG24NH-COPEG4(PhMeTz)/TCO-PEG3NH-COPEG24NH-Glu-DBCO/N3-Nanobody)1(α-Lys(α-NHCy5)(ε-NHDFO))1(α-NH2)30(ε-NH-COPEG100 … (VHH)
VHH: B2 VHH
modifications: # (unnatural amino acid, p-azido-phenylalanine, after ...QVTVSS) clicked to the DBCO of linker Compound 51, whose TCO is joined to the tetrazine on the surface of the G5 lysine dendrimer Compound 29 (Cy5, DFO, 32 PEG1000)
notes: also called BHA-G5-PEG1000 + NB

percent of cellular association [7]: 20% | percent of cellular association [8]: 157%
B10: BHA[Lys]2[Lys]4[Lys]8[Lys]16[((α-NH-COPEG24NH-COPEG4(PhMeTz)/TCO-PEG3NH-COPEG24NH-Glu-DBCO/N3-Nanobody)1(α-Lys(α-NHCy5)(ε-NHDFO))1(α-NH2)14(ε-NH-COPEG1000)16], … (VHH)
VHH: B2 VHH
modifications: # (unnatural amino acid, p-azido-phenylalanine, after ...QVTVSS) clicked to the DBCO of linker Compound 51, whose TCO is joined to the tetrazine on the surface of the G4 lysine dendrimer Compound 28 (Cy5, DFO, 16 PEG1000)
notes: One nanobody on each dendrimer; also called single 2D3-dendrimer conjugate; BHA-G4-PEG1000 + NB

Source: patent US20240293588A1, “THERAPEUTIC CONJUGATES” (Starpharma Pty Ltd, priority 2020, published 2024)
